{
  "source": "patent US11266616B2",
  "about": "“Compositions and methods for inhibiting kinase activity” (BRANDEIS UNIVERSITY, priority 2016, dated 2022)",
  "key": {"[1]": {"target": "T1, Aurora A kinase (Homo sapiens, UniProt O14965)", "T1 construct": "Codon-optimized Aurora A^122-403 in pET28a and untagged λPP in T7-7 plasmid were co-transformed in BL21(DE3) cells; inferred from pET28a and the NiNTA column) (cleaved yes); made in house; host or cells: E. coli BL21(DE3)", "T1 sequence (O14965 122-403)": "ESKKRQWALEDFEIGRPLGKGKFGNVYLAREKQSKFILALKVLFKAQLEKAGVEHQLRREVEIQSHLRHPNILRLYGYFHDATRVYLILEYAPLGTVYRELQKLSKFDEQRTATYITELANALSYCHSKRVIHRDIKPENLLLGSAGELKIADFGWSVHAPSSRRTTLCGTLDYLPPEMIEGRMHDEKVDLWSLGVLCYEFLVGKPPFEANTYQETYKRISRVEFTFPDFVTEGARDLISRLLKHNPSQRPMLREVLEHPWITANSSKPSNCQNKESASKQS", "experiment": "In vitro kinase assay (HPLC-based / ATP/NADH-coupled) of peptide substrate phosphorylation", "assay_type": "biochemical", "details": "phosphorylated Aurora A, AP peptide, FIG. 20", "method": "(§1) Aurora A, either phosphorylated/dephosphorylated wild type or mutant protein, was mixed with either AP ([…]) (SEQ ID NO: 5), Kemptide (LRRASLG) (SEQ ID NO: 6), or Lats2 ([…]) (SEQ ID NO: 7), in the absence or presence of 50 μM TPX2 in kinase buffer (20 mM TrisHCl, 200 mM NaCl, 3% [vol/vol] glycerol, 20 mM MgCl2, 1 mM TCEP, pH 7.50). These substrates comprise the consensus sequence for Aurora A ([R/K/N]—R—X—[S/T]-B where B is any hydrophobic residue with the exception of Pro) (Ferrari et al., 2005, Biochem. J., 390(Pt 1):293-302; Ohashi et al., 2006, Oncogene, 25:7691-7702; Sardon et al., 2010, EMBO Reports, 11:977-984). Peptides were ordered through Genscript. For HPLC-based activity assays the following protocol was used. The reaction was initiated with the addition of 5 mM ATP. Then 5 μl time points were collected, resuspended in 10 μl 6% (vol/vol) trichloroacetic acid (in water) to quench the reaction, and neutralized with 50 μl 100 mM KH2PO4, pH 8.0 to provide the appropriate pH for nucleotide separation. The mixture was then passed through a 0.22 μm SpinX column to remove any protein precipitation. Reverse phase-high performance liquid chromatography (RP-HPLC) and an ACE 5 C18-AR, 100 Å pore size column, were used to separate nucleotides as well as peptides. For nucleotide runs, 2 μl of the aforementioned mixture was sufficient for analysis, whereas for the peptide runs the optimal injection volume was 20 μl. Nucleotide runs were routinely performed to ensure no unproductive hydrolysis was occurring during the experiment. An isocratic elution run in 100 mM KH2PO4, pH 6.0 was performed for this purpose. For the peptide runs, a gradient of 0-30% of elution buffer lasting 10 min at 0.4 mL/min was sufficient to separate phosphorylated from non-phosphorylated species. The running buffer was 0.1% TFA (vol/vol) in water, while the elution buffer was 100% acetonitrile. Lastly, to ensure full saturation of Aurora A by TPX2 and test these proteins were well behaved, a dose-dependence curve of the effect of TPX2 on Aurora A was obtained.\n(§2) For ATP/NADH-coupled assay-based reaction, the following protocol was used. Phosphorylation of different concentrations of Lats2 peptide was monitored using the ATP/NADH coupled assay in a 96-well plate format. Reactions were carried in the presence of 1 μM dephosphorylated or 0.05 μM phosphorylated Aurora and 5 mM ATP in assay buffer (20 mM TrisHCl, 200 mM NaCl, 20 mM MgCl2, 10% (v/v) glycerol, 1 mM TCEP, pH 7.50) at 25° C."}, "[2]": {"target": "T2, Aurora A kinase (Homo sapiens, UniProt O14965, T288V)", "T2 construct": "Codon-optimized Aurora A^122-403 in pET28a and untagged λPP in T7-7 plasmid were co-transformed in BL21(DE3) cells; made in house; host or cells: E. coli BL21(DE3)", "T2 sequence (O14965 122-403 T288V)": "T1 sequence (O14965 122-403) with T167V", "experiment": "In vitro kinase assay (HPLC-based / ATP/NADH-coupled) of peptide substrate phosphorylation", "assay_type": "biochemical", "details": "dephosphorylated Aurora A (T288V mutant), AP peptide, FIG. 20", "method": "as §1, §2"}},
  "note": "Changes are numbered by the printed parent chain.",
  "data": [
    {"substance": "TPX2: naturally occurring allosteric activator of Aurora A kinase, binds the PIF pocket (MSQVKSSYSYDAPSDFINFSSLDDEGDTQNIDSWFEEKANLENKL) [reference compound]", "values": [
      {"measurement": "effect of TPX2 binding on kinase activity", "setting": "[1]", "result": "only slightly increased"},
      {"measurement": "effect of TPX2 binding on kinase activity", "setting": "[2]", "result": "greatly increased"}
    ]}
  ]
}
